# Data as given in patent US20090104147A1.
# Experiments:
# [1] = molecular target: porcine sialoadhesin (pig) (UniProt A7LCJ3); assay: cell-based or functional assay
# [2] = molecular target: recombinant sialoadhesin expressed on CHO cells (CHO-Sn); assay: cell-based or functional assay
substance,measurement,setting,value
mAb 41D3/saporin conjugate,"% Living cells, primary porcine macrophages, conjugate concentration 0.3*10^-6",[1],30.4%
same,"% Living cells, primary porcine macrophages, conjugate concentration 10^-7",[1],29.3%
same,"MTT assay OD value, primary porcine macrophages, column head 10",[1],0.537 OD
same,"MTT assay OD value, primary porcine macrophages, column head 30",[1],0.541 OD
same,"% Living cells, CHO-Sn cells, conjugate concentration 0.1*10^-6",[2],64.4%
same,"% Living cells, CHO-Sn cells, conjugate concentration 0.25*10^-6",[2],57.1%
same,"% Living cells, CHO-Sn cells, conjugate concentration 0.5*10^-6",[2],64.2%
same,"% Living cells, CHO-Sn cells, conjugate concentration 10^-7",[2],63%
same,"MTT assay OD value, CHO-Sn cells, 25",[2],1.35 OD
same,"MTT assay OD value, CHO-Sn cells, column head 6.25",[2],1.45 OD
same,"MTT assay OD value, CHO-Sn cells, column head 12.5",[2],1.47 OD
same,"MTT assay OD value, CHO-Sn cells, column head 50",[2],1.47 OD
